Measured values: patent US20180282719A1 (published 2018)
Substitutions are numbered along the chain they refer to. Like-named read-outs stand apart in the source and are kept apart here. One block for each binder: values may come before it.

Columns and labels:
[1] = molecular target: T1, recombinant soluble human IL-6 receptor (SR344) (human, UniProt P08887 20-344, biotinylated (sites not given) where immobilized via streptavidin or used in phage ELISA); experiment: SPR Biacore T100, antibody captured by anti-IgG gamma chain F(ab)2, SR344 analyte, pH 7.4, 37 C
T1 construct: also called soluble IL-6 receptor; membrane-type IL-6 receptor (when biotinylated and immobilized on the chip)
T1 sequence (looked up): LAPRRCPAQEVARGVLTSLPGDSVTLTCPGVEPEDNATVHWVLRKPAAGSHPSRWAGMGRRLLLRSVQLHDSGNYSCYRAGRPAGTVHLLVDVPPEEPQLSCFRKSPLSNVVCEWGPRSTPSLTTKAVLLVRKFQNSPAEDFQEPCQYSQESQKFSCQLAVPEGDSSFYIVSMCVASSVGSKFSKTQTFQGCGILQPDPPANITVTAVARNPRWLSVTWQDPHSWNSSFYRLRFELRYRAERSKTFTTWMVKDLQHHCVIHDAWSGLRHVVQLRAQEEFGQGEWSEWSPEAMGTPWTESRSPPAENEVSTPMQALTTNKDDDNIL
Description: (§1) Kinetic analyses of antigen-antibody reactions at pH 7.4 were carried out on the four types of antibodies, i.e., the humanized PM1 antibody (wild type: WT), and […], H3pI/L73-IgG1, Fv2-IgG1, and Fv4-IgG1 constructed in Examples 2 and 10, by using a Biacore T100™ surface plasmon resonance system (GE Healthcare) (buffer: 10 mM MES (pH 7.4), 150 mM NaCl, 0.05% TWEEN® 20 (polyoxyethelene sorbitan monolaurate)). Each antibody was bound on a sensor chip on which an anti-IgG γ chain specific F(ab)₂ (Pierce) was immobilized by amine coupling, and then, SR344 adjusted to a concentration of 9.8 to 40 nM was injected thereto as an analyte. The association to and dissociation from SR344 were observed on a real-time basis for the pH-dependent-binding clones. All the measurements were carried out at 37° C. Association rate constants kₐ (1/Ms) and dissociation rate constants kd (1/s) were calculated using Biacore T100™ Evaluation Software (GE Healthcare), and dissociation constants KD (M) were calculated on the basis of those values (Table 7).

[2] = molecular target: T1, recombinant soluble human IL-6 receptor …; experiment: as above; remark: listed apart in the source
Description: as §1
The association to and dissociation from SR344 were observed on a real-time basis using the same method as Example 10 for the eleven types of antibodies, humanized PM1 antibody (wild type: WT) and H3pI/L73-IgG1, Fv1-M71, Fv1-M73, Fv2-IgG1, Fv3-M71, Fv3-M73, Fv4-IgG1, Fv4-IgG2, Fv4-M58, and Fv4-M73, constructed as described above. The association rate constants kₐ (1/Ms) and dissociation rate constants kd. (1/s) were calculated by analysis in the same manner, and the dissociation constants KD (M) were calculated on the basis of those values (Table 11).

[3] = molecular target: T1, recombinant soluble human IL-6 receptor …; experiment: SPR Biacore T100, biotinylated SR344 on streptavidin chip (model of membrane-type IL-6 receptor), antibody as analyte, 37 C
Description: (§2) Binding to the membrane-type IL-6 receptor was evaluated by evaluating binding to the IL-6 receptor immobilized on a sensor chip. SR344 was biotinylated in accordance with a method known among persons with ordinary skill in the art, and the biotinylated SR344 was immobilized on the sensor chip via streptavidin using the affinity between streptavidin and biotin. All the measurements were carried out at 37° C. The mobile phase buffer was 10 mM MES (pH 5.8), 150 mM NaCl and 0.05% TWEEN® 20 (polyoxyethelene sorbitan monolaurate).
(§3) The pH-dependently-binding clones were injected under the condition of pH 7.4 to allow them to bind to SR344, and then, the pH-dependent dissociation of each clone at the pH of the mobile phase, pH 5.8, was observed. The results are shown in FIG. 21 (results for Fv1-M71, Fv1-M73, Fv3-M71, and Fv3-M73 are shown in FIG. 21, while results for other clones are shown in FIGS. 17 and 19). Analyses were carried out in the same manner as in Example 10 and the pH dependencies of the dissociation rate constants of all of the eleven types of clones are shown in Table 12.

[4] = molecular target: T1, recombinant soluble human IL-6 receptor …; experiment: SPR Biacore T100, biotinylated SR344 on streptavidin chip (model of membrane-type IL-6 receptor), antibody 0.25 ug/mL as analyte, 37 C
Description: as §2, §3

[5] = molecular target: T1, recombinant soluble human IL-6 receptor …; experiment: SPR Biacore T100, biotinylated SR344 on streptavidin chip (model of membrane-type IL-6 receptor), antibody as analyte, bound at pH 7.4, dissociation at pH 5.8, 37 C
Description: as §2, §3

[6] = molecular target: T1, recombinant soluble human IL-6 receptor …; experiment: SPR Biacore T100, biotinylated SR344 on streptavidin chip (model of membrane-type IL-6 receptor), antibody as analyte, bound at pH 7.4, dissociation at pH 7.4, 37 C
Description: as §2, §3

[7] = molecular target: T1, recombinant soluble human IL-6 receptor …; experiment: SPR Biacore T100, biotinylated SR344 on streptavidin chip (model of membrane-type IL-6 receptor), antibody 0.25 ug/mL as analyte, bound at pH 7.4, dissociation at pH 5.8, 37 C
Description: as §2, §3

[8] = molecular target: T1, recombinant soluble human IL-6 receptor …; experiment: SPR Biacore T100, biotinylated SR344 on streptavidin chip (model of membrane-type IL-6 receptor), antibody 0.25 ug/mL as analyte, bound at pH 7.4, dissociation at pH 7.4, 37 C
human IL-6 (Toray) [9] = molecular target: T2, human IL-6 (Toray) (human, UniProt P05231 30-212); experiment: SPR Biacore T100, antibody on protein A/G chip, human IL-6 analyte, pH 5.5, 37 C
T2 construct: also called human interleukin-6
Description: (§4) Kinetic analysis of antigen-antibody reactions at pH 5.5 and pH 7.4 was carried out using a Biacore T100™ surface plasmon resonance system (GE Healthcare) for the three types of antibodies prepared as mentioned above: Anti-IL6 wild type, Anti-IL6 clone 1, and Anti-IL-6 clone 2 (buffer: DPBS(−) (pH 7.4 or pH 5.5), 150 mM NaCl). The antibodies were bound to a sensor chip on which recomb-protein A/G (Pierce) was immobilized by amine coupling, and then human IL-6 (Toray) adjusted to an appropriate concentration was injected on the chip as an analyte. All the measurements were carried out at 37° C. Association rate constants kₐ (1/Ms) and dissociation rate constants kd (1/s) were calculated using Biacore T100™ Evaluation Software (GE Healthcare), and dissociation constants KD (M) were calculated based on those values (Table 14). Furthermore, the ratio of affinity at pH 5.5 and pH 7.4 was calculated for each clone to evaluate the pH-dependent binding.

human IL-6 (Toray) [10] = molecular target: T2, human IL-6 (Toray); experiment: SPR Biacore T100, antibody on protein A/G chip, human IL-6 analyte, pH 7.4, 37 C
Description: as §4

human IL-6 (Toray) [11] = molecular target: T2, human IL-6 (Toray); experiment: SPR Biacore T100, antibody on protein A/G chip, human IL-6 analyte, 37 C, ratio of pH 5.5 to pH 7.4
Description: as §4

human IL-6 (Toray) [12] = molecular target: T2, human IL-6 (Toray); experiment: SPR Biacore T100, antibody on protein A/G chip, human IL-6 analyte, 37 C
Description: as §4

[13] = molecular target: T3, soluble mouse IL-31 receptor (mouse, UniProt Q8K5B1 19-499); experiment: SPR Biacore T100, antibody on protein A/G chip, soluble mouse IL-31 receptor analyte, pH 7.4, 25 C
T3 sequence (looked up): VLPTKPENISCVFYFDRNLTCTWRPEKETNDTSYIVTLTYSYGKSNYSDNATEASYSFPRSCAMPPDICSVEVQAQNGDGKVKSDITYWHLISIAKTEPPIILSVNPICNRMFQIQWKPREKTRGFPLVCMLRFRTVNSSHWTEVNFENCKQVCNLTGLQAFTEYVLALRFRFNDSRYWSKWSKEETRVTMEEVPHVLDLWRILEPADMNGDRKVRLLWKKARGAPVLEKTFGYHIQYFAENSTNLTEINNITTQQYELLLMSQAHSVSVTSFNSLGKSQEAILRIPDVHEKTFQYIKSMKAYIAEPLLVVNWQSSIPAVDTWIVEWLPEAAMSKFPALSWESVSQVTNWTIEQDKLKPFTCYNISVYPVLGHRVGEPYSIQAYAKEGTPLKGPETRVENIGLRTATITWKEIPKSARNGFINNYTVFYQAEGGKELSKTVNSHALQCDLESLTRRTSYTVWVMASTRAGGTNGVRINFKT
Description: (§5) Kinetic analysis of antigen-antibody reactions at pH 5.5 and pH 7.4 was carried out using a Biacore T100™ surface plasmon resonance system (GE Healthcare) for the two types of antibodies prepared as mentioned above: Anti-IL31R wild type and Anti-IL31R clone 1 (buffer: DPBS(−) (pH 7.4 or pH 5.5), 150 mM NaCl, 0.01% TWEEN® 20 (polyoxyethelene sorbitan monolaurate), 0.02% NaN₃). The antibodies were bound to a sensor chip on which recomb-protein A/G (Pierce) was immobilized by amine coupling, and then the soluble mouse IL-31 receptor (prepared according to the method described in WO 2007/142325) adjusted to an appropriate concentration was injected therein as an analyte. All the measurements were carried out at 25° C. Association rate constants kₐ (1/Ms) and dissociation rate constants kd (1/s) were calculated using Biacore T100™ Evaluation Software (GE Healthcare), and dissociation constants KD (M) were calculated based on those values (Table 16). Furthermore, the ratio of affinity at pH 5.5 and pH 7.4 was calculated for each clone to evaluate the pH-dependent binding.

[14] = molecular target: T3, soluble mouse IL-31 receptor; experiment: SPR Biacore T100, antibody on protein A/G chip, soluble mouse IL-31 receptor analyte, 25 C, ratio of pH 5.5 to pH 7.4
Description: as §5

Kd [1]: 2 nM
koff [1]: 0.00077 s⁻¹
kon [1]: 390000 M⁻¹ s⁻¹
Kd [2]: 2 nM
koff [2]: 0.00077 s⁻¹
kon [2]: 390000 M⁻¹ s⁻¹
kd (pH 5.8)/kd (pH 7.4) [3]: 7.18
kd (pH 5.8)/kd (pH 7.4) [4]: 7.18
koff [5]: 0.0024 s⁻¹
koff [6]: 0.00034 s⁻¹
koff [7]: 0.0024 s⁻¹
koff [8]: 0.00034 s⁻¹
B1: Fv2-IgG1 (antibody, V domains shown)
VH: QVQLQESGPGLVKPSETLSLTCAVSGYSISHDHAWSWVRQPPGEGLEWIGHISYSGITNYNPHLQDRVTISRDTSKNQFSLKLSSVTAADTAAYYCARFLARITAHDHWGEGTLVTVSS
VL: DIQMTQSPSSLSASVGDSVTITCQASQDISSHLNWYQQKPGKAPELLIYYGSHLHSGVPSRFSGSGSGTDFTFTISSLEAEDAATYYCGQGNRLPYTFGQGTKVEIE
notes: VH1-IgG1 as H chain and L82 as L chain

Kd (human IL-6 (Toray) [9]): 0.0161 nM
koff (human IL-6 (Toray) [9]): 0.000245 s⁻¹
kon (human IL-6 (Toray) [9]): 1.52e+07 M⁻¹ s⁻¹
Kd (human IL-6 (Toray) [10]): 0.0191 nM
koff (human IL-6 (Toray) [10]): 0.000391 s⁻¹
kon (human IL-6 (Toray) [10]): 2.05e+07 M⁻¹ s⁻¹
KD (pH 5.5)/KD (pH 7.4) (human IL-6 (Toray) [11]): 0.8
B2: Anti-IL6 wild type (antibody, human IgG1, kappa, V domains shown)
VH: EVQLVESGGKLLKPGGSLKLSCAASGFTFSSFAMSWFRQSPEKRLEWVAEISSGGSYTYYPDTVTGRFTISRDNAKNTLYLEMSSLRSEDTAMYYCARGLWGYYALDYWGQGTSVTVSS
VL: QIVLIQSPAIMSASPGEKVTMTCSASSSVSYMYWYQQKPGSSPRLLIYDTSNLASGVPVRFSGSGSGTSYSLTISRMEAEDAATYYCQQWSGYPYTFGGGTKLEIKR
notes: Antibody of WO 2004/039826, rebuilt and tested here; also called anti-IL-6 antibody including the H chain (WT) and L chain (WT)

pH-dependent binding ability relative to WT (human IL-6 (Toray) [12]): > 10 fold
Kd (human IL-6 (Toray) [9]): 3.98 nM
koff (human IL-6 (Toray) [9]): 0.011 s⁻¹
kon (human IL-6 (Toray) [9]): 2.76e+06 M⁻¹ s⁻¹
Kd (human IL-6 (Toray) [10]): 0.294 nM
koff (human IL-6 (Toray) [10]): 0.00263 s⁻¹
kon (human IL-6 (Toray) [10]): 8.96e+06 M⁻¹ s⁻¹
KD (pH 5.5)/KD (pH 7.4) (human IL-6 (Toray) [11]): 13.5
B3: Anti-IL-6 clone 2 (antibody, human IgG1, kappa, V domains shown)
VH: B2 VH with F32H, Y60H, D62H, Y103H
VL: B2 VL with N52H, L53H, Q89H, Y93H
notes: H chain (c1) / L chain (c2)

pH-dependent binding ability relative to WT (human IL-6 (Toray) [12]): > 10 fold
Kd (human IL-6 (Toray) [9]): 4.52 nM
koff (human IL-6 (Toray) [9]): 0.00926 s⁻¹
kon (human IL-6 (Toray) [9]): 2.05e+06 M⁻¹ s⁻¹
Kd (human IL-6 (Toray) [10]): 0.438 nM
koff (human IL-6 (Toray) [10]): 0.00471 s⁻¹
kon (human IL-6 (Toray) [10]): 1.07e+07 M⁻¹ s⁻¹
KD (pH 5.5)/KD (pH 7.4) (human IL-6 (Toray) [11]): 10.3
B4: Anti-IL6 clone 1 (antibody, human IgG1, kappa, V domains shown)
VH: B2 VH with F32H, Y60H, D62H, Y103H
VL: B2 VL with L53H, Q89H, Y93H
notes: H chain (c1) / L chain (c1)

Kd [13]: 23 nM
koff [13]: 0.0034 s⁻¹
kon [13]: 140000 M⁻¹ s⁻¹
KD (pH 5.5)/KD (pH 7.4) [14]: 3.2
B5: Anti-IL31R wild type (antibody, human IgG1, lambda, V domains shown)
VH: not shown
VL: LPVLTQPPSVSVAPGQTARITCGGNNIGSKTVYWYQQEPGQAPVLVVYDDTDRPAGIPERFSGANSGNTATLTISRVEAGDEADYYCQVWDSSTDHGVFGGGTKLTVLG
notes: Antibody of WO 2007/142325, rebuilt and tested here; also called anti-IL-31 receptor antibody including the H chain (WT) and L chain (WT)
